The values that follow come from article PMC10071043, “Cryo-EM structure of the RuvAB-Holliday junction intermediate complex from Pseudomonas aeruginosa” (Frontiers in Plant Science, 2023).

The term stoichiometry N denotes the number of molecules, sites or subunits per partner or assembly.

The chains are these.
T1: PaRuvA (Pseudomonas aeruginosa, UniProt Q51425 1-201)
T1 sequence: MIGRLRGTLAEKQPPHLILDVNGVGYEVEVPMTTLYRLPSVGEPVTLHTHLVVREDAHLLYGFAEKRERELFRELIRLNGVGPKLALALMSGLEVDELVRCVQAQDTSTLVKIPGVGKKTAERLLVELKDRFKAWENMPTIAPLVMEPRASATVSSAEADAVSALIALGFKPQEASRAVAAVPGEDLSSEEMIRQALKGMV

B1: Pseudomonas aeruginosa RuvA (natural protein, UniProt Q51425 1-201, looked up)
chain: T1 sequence
notes: cDNA synthesised (GenBank ID 879609); domains D1, D2 and D3; In the cryo-EM complex eight RuvA subunits (two tetramers) sandwich one Holliday junction DNA; GST removed with PreScission protease; also called PaRuvA; source: E. coli Rosetta (DE3), purified (GST Sepharose, Source 15Q, Superdex 200); not shown: GST, N-terminal, cleaved
B2: Pseudomonas aeruginosa RuvB (enzyme, UniProt Q51426 1-352, looked up)
chain: MIEPDRLISAVSGRERDEQLDRAIRPLKLADYIGQPSVREQMELFIHAARGRQEALDHTLIFGPPGLGKTTLANIIAQEMGVSIKSTSGPVLERPGDLAALLTNLEAGDVLFVDEIHRLSPIVEEVLYPAMEDFQLDIMIGEGPAARSIKLDLPPFTLVGATTRAGMLTNPLRDRFGIVQRLEFYNVEDLATIVSRSAGILGLEIEPQGAAEIAKRARGTPRIANRLLRRVRDFAEVRGQGDITRVIADKALNLLDVDERGFDHLDRRLLLTMIDKFDGGPVGIDNLAAALSEERHTIEDVLEPYLIQQGYIMRTPRGRVVTRHAYLHFGLNIPKRLGPGVTTDLFTSEDGN
notes: RuvB, AAA+ ATPase motor protein of Pseudomonas aeruginosa; cDNA synthesised (GenBank ID 882028); domains N, M and C; In the cryo-EM complex eight RuvB subunits form two open rings of four; only one ring is modelled; GST removed with PreScission protease; also called PaRuvB; source: E. coli BL21 (DE3), purified (GST Sepharose, Source 15Q, Superdex 200); not shown: GST, N-terminal, cleaved
B3: HJ2 (HJ2-A/B/C/D) (structured_DNA)
DNA 1: CACTGTGATGCACGATGATAGAACACAGTACTCAGTGCTGCAGTGCTCAGGTGTG
DNA 2: ATACAGATGTAGAGCCAGCACTGAGTACTGTGTTCTATCATCGTGCATCACAGTG
DNA 3: CACTGTGATGGCATGTATCCGAACACAGTACTCAGTGCTGGCTCTACATCTGTAT
DNA 4: CACACCTGAGCACTGCAGCACTGAGTACTGTGTTCGGATACATGCCATCACAGTG

In data set [1] the target is B2. Briefly: cryo-EM structure; HJ DNA (HJ2) pre-incubated with RuvA at 4°C for 15 min, then with RuvB for 15 min, RuvA:RuvB:HJ = 8:16:1.2; 50 mM NaCl, 20 mM HEPES pH 7.4, 1 mM ATPγS, 10 mM MgCl2, 1 mM DTT; complex purified on Superose 6. The following applies: both partners purified.
Data set [2] concerns the molecule itself. The description is as above.
Data set [3] has as its target PaRuvA;PaRuvB (Pseudomonas aeruginosa;Pseudomonas …, UniProt Q51425;Q51426 1-201;1-352, |). Briefly: cryo-EM; RuvAB-HJ intermediate complex; PDB assigned from residue and nucleotide counts; binding buffer for cryo-EM not given in material; proteins in 20 mM HEPES pH 7.4, 200 mM NaCl, 15 mM reduced glutathione, 1 mM DTT; DNA annealed in 100 mM HEPES pH 7.4, 50 mM NaCl. The note with it: protein: recombinant;recombinant; tags: GST tag removed (PreScission);GST tag removed (PreScission); chain copies: 8;8; four-way Holliday junction of 4 strands; A/B and C/D annealed first, then mixed.

The target of data set [4] is T1, PaRuvA. Briefly: cryo-EM; RuvA-HJ core region of the RuvAB-HJ complex, 3.0 A; PDB assigned from residue and nucleotide counts; binding buffer for cryo-EM not given in material; proteins in 20 mM HEPES pH 7.4, 200 mM NaCl, 15 mM reduced glutathione, 1 mM DTT; DNA annealed in 100 mM HEPES pH 7.4, 50 mM NaCl. The note with it: protein: recombinant; tags: GST tag removed (PreScission); chain copies: 8; four-way Holliday junction of 4 strands; A/B and C/D annealed first, then mixed.

For data set [5], the target named is PaRuvB (Pseudomonas aeruginosa, UniProt Q51426 1-352). Briefly: cryo-EM; RuvB ring on one HJ arm duplex in the RuvAB-HJ complex; RuvB1 and RuvB2 contact DNA via C-terminal beta-hairpins, RuvB3 and RuvB4 DNA-free; PDB assigned from residue and nucleotide counts; binding buffer for cryo-EM not given in material; proteins in 20 mM HEPES pH 7.4, 200 mM NaCl, 15 mM reduced glutathione, 1 mM DTT; DNA annealed in 100 mM HEPES pH 7.4, 50 mM NaCl. The note with it: protein: recombinant; tags: GST tag removed (PreScission); chain copies: 8; four-way Holliday junction of 4 strands; A/B and C/D annealed first, then mixed.

As for B1, the binding result in data set [1] is listed as “binds”. Moreover, in data set [2], the “stoichiometry N” value was 8.

Regarding B2, the “stoichiometry N” value in data set [2] was 4.

B3: the binding result in data set [3], in data set [4] and in data set [5] was “binds” in each case.
